Here are results for one substance from US8916693B2, “Monoconjugated chitosans as delivery agents for small interfering nucleic acids” (Nektar Therapeutics, priority 2009, dated 2014).

The nature of the data set: PBS buffer hydrolysis of releasable monoPEGylated chitosan (HPLC, disappearance of starting material). The data set is classed as physicochemical. The following applies: 25 mM PBS, pH 7.3; 2 mg in 1 mL. How it is done:
PBS buffer hydrolysis of releasable monoPEGylated (20 KDa) chitosan (10 KDa): To a solution of 25 mM PBS, pH 7.3, (1 mL) was added the monoPEGylated (20 KDa) chitosan (10 KDa) (2 mg). The solution was filtered through a 0.2 μm filter and analyzed for the disappearance of the PEGylated chitosan starting material on an HPLC system with a flow rate of 0.5 mL/min, gradient (A: 0.1M TEAA, B: 80% ACN and 20% 0.1M TEAA) 15% B 0-4 min, 50% B 8 min, and 58.2% B. The column used was a Zorbax 300SB-C3 3.0×150 mm, […], column.

Consider “Releasable monoPEGylated (20 KDa) Chitosan (10 KDa)”, for which the “calculated half-life (hydrolysis, disappearance of the PEGylated chitosan)” value was 7.04 h.
